Laboratory results from the RNAGym collection of RNA variant scans (doi:10.1073/pnas.2313332121).

B1: TPR t1 (parent)
chain: GACCAAUCUGCCCUCAGAGCUCGAGAACAUCUUCGGAUGCAGAGGAGGCAGGCUUCGGUGGCGCGAUAGCGCCAACGUCCUCAACCUCCAAUGCAUCCCACCACAUGAUGAUGCCUGAAGAGCCUUGGUUUUUUG

Variants of: B1
Assay: polymerase ribozyme fitness, log enrichment relative to wild type (log ratio); higher = more active; in vitro selection for triplet polymerase activity
How it was run: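 To select mutant libraries of each subunit of a heterodimeric triplet polymerase ribozyme, built by PCR and transcribed, each was annealed with a biotinylated primer, partner subunit and triplets, then incubated frozen at −7 °C. Extended constructs were gel-excised, captured on streptavidin beads and amplified by RT-PCR, in one round carried out in triplicate. Illumina sequencing of input and output libraries kept genotypes with ≥10 input reads and ≥1 read per output. Fitness is the base-2 logarithm of genotype enrichment relative to wild-type enrichment, from inverse-variance-weighted replicate averages.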

Variant	polymerase ribozyme fitness (log ratio)
GACCAAUCUGCCCUCAGAGCUCGAGAACAUCUUCGGAUGCAGAGGAGGCAGGCUUCGGUGUCGCGAUAGCGCCAACGUCCUCAACCUCCAAUGCAUCCAACCACAUGAUGAUGCCUGAAGAGCCUUGGUUUUUUG [G61U C99A]	-5.7
GACCAAUCUGCCCUCAGAGCUCGAGAACAUCUUCGGAUGCAGAGGAGGCAGGCUUCGGUGUCGCGAUAGCGCCAACGUCCUCAACCUCCAAUGCAUCCCAACACAUGAUGAUGCCUGAAGAGCCCUGGUUUUUUG [G61U C101A U125C]	-4.61
GACCAAUCUGCCCUCAGAGCUCGAGAACAUCUUCGGAUGCAGAGGAGGCAGGCUUCGGUGUCGCGAUAGCGCCAACGUCCUCAACCUCCAAUGCAUCCCACUACAUGAUGAUGCCUGAAGAGCCUUGGUUUUUUG [G61U C102U]	-1.65
GACCAAUCUGCCCUCAGAGCUCGAGAACAUCUUCGGAUGCAGAGGAGGCAGGCUUCGGUGUCGCGAUAGCGCCAACGUCCUCAACCUCCAAUGCAUCCCACCAUAUGAUGAUGCCUGAAGAGCCUUGGUUUUUUG [G61U C104U]	0.264
GACCAAUCUGCCCUCAGAGCUCGAGAACAUCUUCGGAUGCAGAGGAGGCAGGCUUCGGUGUCGCGAUAGCGCCAACGUCCUCAACCUCCAAUGCAUCCCACCACAUGAUGAUGCGUAAAGAUCCUCGGUUUUUUG [G61U C115G G117A G122U U126C]	-4.57
GACCAAUCUGCCCUCAGAGCUCGAGAACAUCUUCGGAUGCAGAGGAGGCAGGCUUCGGUGUCACGAUAGCGCCAACGUCCUCAACCUCCAAUGCAACCCACCGCAUGAUGUUACCUGAAGAGCCUUGGUUUCUUG [G61U G63A U96A A103G A111U G113A U132C]	-6.45
GACCAAUCUGCCCUCAGAGCUCGAGAACAUCUUCGGAUGCAGAGGAGGCAGGCUUCGGUGUCGCGAUAGCGCCAACCUCCUCAACCUCCAAUGCAUCCCACCACAUGAUGAUGCCUGAUGAGCCUUGGUUUUUUG [G61U G77C A119U]	-1.73
GACCAAUCUGCCCUCAGAGCUCGAGAACAUCUUCGGAUGCAGAGGAGGCAGGCUUCGGUGUCGCGAUAGCGCCAACGUCCUCAACCUCCAAUUCAUCCCACCACAUGAUGAUGCCUGAAGAGCCUUGGUAUUUUG [G61U G93U U130A]	-1.63
GACCAAUCUGCCCUCAGAGCUCGAGAACAUCUUCGGAUGCAGAGGAGGCAGGCUUCGGUGUCGCGAUAGCGCCAACGUCCUCAACCUCCAAUGCAUCCCACCACAUAAUGAUGCCUGAAGAGCCUUGGUUUUUUG [G61U G107A]	-5.22
GACCAAUCUGCCCUCAGAGCUCGAGAACAUCUUCGGAUGCAGAGGAGGCAGGCUUCGGUGUCGCGAUAGCGCCAACGUCCUCAACCUCCAAUGCAUCCCACCACAUGAUGAUCCCUGAAGAGCCUUGGUGUUUUU [G61U G113C U130G G135U]	-3.21
GACCAAUCUGCCCUCAGAGCUCGAGAACAUCUUCGGAUGCAGAGGAGGCAGGCUUCGGUGUCGCGAUAGCGCCAACGUCCUCAACCUCCAAUGCAUCCCACCACAUGAUGAUGCCUAAAGAGCCUUGGUUUUUUG [G61U G117A]	-0.499
GACCAAUCUGCCCUCAGAGCUCGAGAACAUCUUCGGAUGCAGAGGAGGCAGGCUUCGGUGUCGCGAUAGCGCCAACGUCCUCAACCUCCAAUGCAUCCCACCACAUGAUGAUGCCUGAAGAGCCUUGAUUUUUUG [G61U G128A]	-1.7
GACCAAUCUGCCCUCAGAGCUCGAGAACAUCUUCGGAUGCAGAGGAGGCAGGCUUCGGUGUCGCGAUAGCGCCAACGUCCUCAACCUCCAAUGCAUCCCACCACAUGAUGAUGCCUGAAGAGCCUUGGUUUUUUA [G61U G135A]	-0.268
GACCAAUCUGCCCUCAGAGCUCGAGAACAUCUUCGGAUGCAGAGGAGGCAGGCUUCGGUGUCGCGAUAGCGCCAACGCCCUCAACCUCGAAUGCAUCCCACCACAUGAUGAUGCCUGAAGAGCCUUGGUUUUUUG [G61U U78C C89G]	-1.23
GACCAAUCUGCCCUCAGAGCUCGAGAACAUCUUCGGAUGCAGAGGAGGCAGGCUUCGGUGUCGCGAUAGCGCCAACGUCCACAACCUCCAAUGCAUCCCACCACAUGAUGAUGCCUGAAGAGCCUUGGUUUUUUG [G61U U81A]	-0.596
GACCAAUCUGCCCUCAGAGCUCGAGAACAUCUUCGGAUGCAGAGGAGGCAGGCUUCGGUGUCGCGAUAGCGCCAACGUCCCCAACGUCCAAUGCAUCCCACCACAUGAUGAUUCCUGAUGAGCCUUGGUUUUUUG [G61U U81C C86G G113U A119U]	-6.31
GACCAAUCUGCCCUCAGAGCUCGAGAACAUCUUCGGAUGCAGAGGAGGCAGGCUUCGGUGUCGCGAUAGCGCCAACGUCCGCAACUUCCAAUGCAUCCCACCACAUGAUGAUGCCUGAAUAGCCUUGGUUUUUUG [G61U U81G C86U G120U]	-2.64
GACCAAUCUGCCCUCAGAGCUCGAGAACAUCUUCGGAUGCAGAGGAGGCAGGCUUCGGUGUCGCGAUAGCGCCAACGUCCGCAACCUCCAAUGCAUCCCACCACAUGAUGAUGCCUGAAGAGCCUUGGAUUUUUG [G61U U81G U129A]	-4.47
GACCAAUCUGCCCUCAGAGCUCGAGAACAUCUUCGGAUGCAGAGGAGGCAGGCUUCGGUGUCGCGAUAGCGCCAACGUCCUCAACCACCAAUGCAUCCCACCACAUGAUGAUGCCUGAAGUGCCUUGGUUUUUUG [G61U U87A A121U]	1.5
GACCAAUCUGCCCUCAGAGCUCGAGAACAUCUUCGGAUGCAGAGGAGGCAGGCUUCGGUGUCGCGAUAGCGCCAACGUCCUCAACCUCCAAUGCAACCCACCACAUGAUGAUGCCUGAAGAGCCUUGGUUUUUUG [G61U U96A]	-0.797
GACCAAUCUGCCCUCAGAGCUCGAGAACAUCUUCGGAUGCAGAGGAGGCAGGCUUCGGUGUCGCGAUAGCGCCAACGUCCUCAACCUCCAAUGCAUCCCACCACAAGAUGAUGCCCGAAGAGCCUUGGUUUUUUG [G61U U106A U116C]	-0.163

Variant	polymerase ribozyme fitness (log ratio)
GACCAAUCUGCCCUCAGAGCUCGAGAACAUCUUCGGAUGCAGAGGAGGCAGGCUUCGGUGUCGCGAUAGCGCCAACGUCCUCAACCUCCAAUGCAUCCCACCACAUGAUGAUGCCUGAAGAGCCGUGGUUUUUUG [G61U U125G]	-0.883
GACCAAUCUGCCCUCAGAGCUCGAGAACAUCUUCGGAUGCAGAGGAGGCAGGCUUCGGUGUCGCGAUAGCGCCAACGUCCUCAACCUCCAAUGCAUCCCACCACAUGAUGAUGCCUGAAGAGCCUUGGUUUUGUG [G61U U133G]	-0.566
GACCAAUCUGCCCUCAGAGCUCGAGAACAUCUUCGGAUGCAGAGGAGGCAGGCUUCGGUGGAGCGAUAGCGCCAACGUCCUCAACCUCCAAUGCAUCCCACCACAUGAUGAUGCCUGAAGAGCCUUGGUUUUUUG [C62A]	-0.872
GACCAAUCUGCCCUCAGAGCUCGAGAACAUCUUCGGAUGCAGAGGAGGCAGGCUUCGGUGGAGCGUUAGCGCCAACGUCCUCAACCUCCAAUGCAUCCCACCACAUGAUGAUGCCUGAAGAGCCUUGGUUUUUUG [C62A A66U]	-3.17
GACCAAUCUGCCCUCAGAGCUCGAGAACAUCUUCGGAUGCAGAGGAGGCAGGCUUCGGUGGAGCGAUAGCGCCAACGUCCUCUACCUCCUCUGCAUCCCACCACAUGAUGAUGCCUGAAGAGCCUUGGUUUUUUG [C62A A83U A90U A91C]	-3.43
GACCAAUCUGCCCUCAGAGCUCGAGAACAUCUUCGGAUGCAGAGGAGGCAGGCUUCGGUGGAGCGAUAGCGCCAACGUCCUCAUCCUCCAAUGCAUCCCACCACAUGAUGAUGCCUGAAGAGCCUUGGUUUUUUG [C62A A84U]	-1.52
GACCAAUCUGCCCUCAGAGCUCGAGAACAUCUUCGGAUGCAGAGGAGGCAGGCUUCGGUGGAGCGAUAGCGCCAACGUCCUCAACCUCCAAUGCUUCCCACCACAUGAUGAUGCCUGAAGAGCCUUGGUUUUUUG [C62A A95U]	-1.55
GACCAAUCUGCCCUCAGAGCUCGAGAACAUCUUCGGAUGCAGAGGAGGCAGGCUUCGGUGGAGCGAUAGCGCCAACGUCCUCAACCUCCAAUGCUUCCCACCACAUGAUGAUGCCUGAAGCGCCUUGGUUUUUUG [C62A A95U A121C]	-0.641
GACCAAUCUGCCCUCAGAGCUCGAGAACAUCUUCGGAUGCAGAGGAGGCAGGCUUCGGUGGAGCGAUAGCGCCAACGUCCUCAACCUCCAAUGCAUCCCACCUCAUGAUGAUGCCUGAAGAGCCUUGGUUUUUUG [C62A A103U]	-5.71
GACCAAUCUGCCCUCAGAGCUCGAGAACAUCUUCGGAUGCAGAGGAGGCAGGCUUCGGUGGAGCGAUAGCGCCAACGUCCUCAACCUCCAAUGCAUCCCACCACGUGAUGAUGCCUGAAGAGCCUUGGUUUUUUG [C62A A105G]	-4.17
GACCAAUCUGCCCUCAGAGCUCGAGAACAUCUUCGGAUGCAGAGGAGGCAGGCUUCGGUGGAGCGAUAGCGGCAACGUCCUCAACCUCCAAUGCAUCCCACCACAUGAUGAGGCCUGAAGAGCCUUGGUUUUUUG [C62A C72G U112G]	-1.95
GACCAAUCUGCCCUCAGAGCUCGAGAACAUCUUCGGAUGCAGAGGAGGCAGGCUUCGGUGGAGCGAUAGCGUCAACGUCCUCAACCUCCAAUCCAUCCCACCACAUGAUGAUGCCUGAAGAGCCUUGGUUUUUUG [C62A C72U G93C]	-1.64
GACCAAUCUGCCCUCAGAGCUCGAGAACAUCUUCGGAUGCAGAGGAGGCAGGCUUCGGUGGAGCGAUAGCGCCAACGUUCUCAACCUGCAAUGCAUCCCACCACAUGAUGAUGCCUGAAGAGCCUUGGUUUUUUU [C62A C79U C88G G135U]	-2.35
GACCAAUCUGCCCUCAGAGCUCGAGAACAUCUUCGGAUGCAGAGGAGGCAGGCUUCGGUGGAGCGAUAGCGCCAACGUCCUAAAUCUCCAAUGCAUCCCACCACAUGAUGAUGCCUGAAGAGCCUUGGUUUUUUG [C62A C82A C85U]	-2.3
GACCAAUCUGCCCUCAGAGCUCGAGAACAUCUUCGGAUGCAGAGGAGGCAGGCUUCGGUGGAGCGAUAGCGCCAACGUCCUUAACCUCCAAUGCAUCCCACCACAUGAUGAUGCCUGAAGAGCCUUGGUUUUUUG [C62A C82U]	-0.465
GACCAAUCUGCCCUCAGAGCUCGAGAACAUCUUCGGAUGCAGAGGAGGCAGGCUUCGGUGGAGCGAUAGCGCCAACGUCCUUAACCUCCAAUGCAUCCCACCACAUGAUGAUGCCUGAAGUGCCAUGGUUUUUUG [C62A C82U A121U U125A]	1.19
GACCAAUCUGCCCUCAGAGCUCGAGAACAUCUUCGGAUGCAGAGGAGGCAGGCUUCGGUGGAGCGAUAGCGCCAACGUCCUCAAGCUCCAAUGCAUCCCACCACAUGAUGAUGCCUGAAGAGCCUUGGUUUUUUG [C62A C85G]	-2.62
GACCAAUCUGCCCUCAGAGCUCGAGAACAUCUUCGGAUGCAGAGGAGGCAGGCUUCGGUGGAGCGAUAGCGCCAACGUCCUCAACCUCCAAUGUAUCCCACCACAUGAUGAUGCCUGAAGAGCCUUGGUUUUUUG [C62A C94U]	-1.76
GACCAAUCUGCCCUCAGAGCUCGAGAACAUCUUCGGAUGCAGAGGAGGCAGGCUUCGGUGGAGCGAUAGCGCCAACGUCCUCAACCUCCAAUGCAUCCUACCACAUGAUGAUGCCUGAAGAGCCUUGGUUUUUUG [C62A C99U]	-3.69
GACCAAUCUGCCCUCAGAGCUCGAGAACAUCUUCGGAUGCAGAGGAGGCAGGCUUCGGUGGAGCGAUAGCGCCAACGUCCUCAACCUCCAAUGCAUCCCAACACAUGAUGAUGCCUGAAGAGCCUUGGUUUUUUG [C62A C101A]	-2.84
GACCAAUCUGCCCUCAGAGCUCGAGAACAUCUUCGGAUGCAGAGGAGGCAGGCUUCGGUGGAGCGAUAGCGCCAACGUCCUCAACCUCCAAUGCAUCCCAACACAUGAUGCUGCCUGAAGAGCCUUGGUUUUUUG [C62A C101A A111C]	-1.51
